In patent US20110053865A1 (Ablynx, published 2011):
“And” between values parts separate entries of the source, which are not always exact repeats. Identical values can stand only once.

T1: recombinant human IL-12 (human, UniProt P29459 23-219; P29460 23-328)
T1 construct: Bought (R&D Systems); also called hIL-12
T1 sequence (looked up) 1: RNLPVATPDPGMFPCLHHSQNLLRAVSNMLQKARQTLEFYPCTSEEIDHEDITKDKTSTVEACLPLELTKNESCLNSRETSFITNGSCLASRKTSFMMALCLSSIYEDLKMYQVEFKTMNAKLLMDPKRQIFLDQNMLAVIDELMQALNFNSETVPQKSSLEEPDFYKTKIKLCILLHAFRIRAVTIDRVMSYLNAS
T1 sequence (looked up) 2: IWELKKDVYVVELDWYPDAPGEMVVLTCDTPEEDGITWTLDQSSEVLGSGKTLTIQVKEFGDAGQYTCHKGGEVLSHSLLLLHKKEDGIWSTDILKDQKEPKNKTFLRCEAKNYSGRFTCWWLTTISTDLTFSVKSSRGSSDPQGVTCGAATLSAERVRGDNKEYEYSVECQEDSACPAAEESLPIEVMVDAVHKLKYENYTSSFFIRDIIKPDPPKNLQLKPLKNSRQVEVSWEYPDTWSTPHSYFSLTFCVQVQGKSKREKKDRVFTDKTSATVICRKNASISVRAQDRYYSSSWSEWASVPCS

T2: recombinant human IL-23 (p19/p40) (human, UniProt Q9NPF7 20-189; P29460 23-328)
T2 sequence (looked up) 1: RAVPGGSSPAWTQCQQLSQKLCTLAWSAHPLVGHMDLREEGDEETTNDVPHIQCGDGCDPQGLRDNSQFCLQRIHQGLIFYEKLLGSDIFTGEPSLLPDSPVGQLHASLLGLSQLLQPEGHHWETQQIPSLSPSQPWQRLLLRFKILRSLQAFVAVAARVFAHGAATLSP
T2 sequence (looked up) 2: T1 sequence (looked up) 2

B1: P23IL3B8 (VHH)
VHH: EVQLVESGGGLVQPGGSLRLSCAASGFTFSSSVMFWLRQAPGKGLEWLSTIKPTGSTIYPGSGKGRFTISRDNAKNTLYLQINNLKPEDTALYYCARDIGGTVRGQGTQVTVSS
notes: p40+ Nanobody; c-myc, His6-tagged
B2: P23IL3C1 (VHH)
VHH: EVQLVESGGGSVQAGGSLRLSCKVSGIMFSDKGMGWFRQAPGKERETVAATNWSGGSTYYADSVKGRFTISRDNYKNTLHLQMASLKPEDTGIYYCAAAGDSWNSRRIEDYDYWGQGTPVTVSS
notes: p40+ Nanobody
B3: P23IL3G10 (VHH)
VHH: EVQLVESGGGVVQAGESLRLSCAASGYNVKDYEMGWFRQAPGMEREFAAAISWRGSSTYYADSVKGRFTISRDNAKNTVYLQMSSLKPEDTAVYYCAAGRLYPSSRSRDYDYWGQGTQVTVSS
notes: as for B1
B4: P23IL-23E3 (VHH)
VHH: EVQLVESGGELVQAGGSLRLSCAASGSIVSISAMAWYRQAPGKQRERVATITRGGTPDYADSAKDRFTISRDNAKNTVSLQMNNLKPEDTAVYYCKAALRTPTHDYNYYDYWGQGTQVTVSS
notes: p40+ Nanobody
B5: P23IL-23H3 (VHH)
VHH: EVQLVESGGGLVQAGDSLRLSCAASGRSFSNDAMGWFRQAPGKERSFVAAINWSGELTGYAGSVKGRFTISRDGVENMVFLQMNSLVPEDTGVYYCAAVEGRDYYRGAQYYDYWGQGTQVTVSS
notes: p40+ Nanobody
B6: P23IL-22D7 (VHH)
VHH: EVQLVESGGGLVQAGGSLRLSCASSGRTFSIYARGWFRQAPGKEREFVAAIRSGLTTYSDSVKGRFTISRDIAKNTVFLQMNSLKSEDTAVYYCAAAVNYFTDFTDYSKRDSYDYWGQGTQVTVSS
notes: p40+ Nanobody
B7: P23IL-22E11 (VHH)
VHH: EVQLVESGGGLVQAGGSLRLSCAASGRTFSWSAVGWFRQAPGKEREFVAAIRWSGGSPYYADSVKDRFTISRDNAKNTVYLQMNSLRPEDTAVYLCGETSLFPTSRGSHYDTWGQGTQVTVSS
B8: P23IL 84A12 (VHH)
VHH: EVQLVESGGGVVQAGESLRLSCAASGRSFSDYEMGWFRQAPGTEREFVASINRRGSSTFYADSVKGRFTISRDNTKNTVYLQMSSLKPEDTAVYLCAAGWLFPSSRSRDYDYWGQGTQVTVSS
notes: as for B1
B9: P23IL 21C4 (VHH)
VHH: EVQLVESGGGLVQAGGSLRLSCAASGRTFSGYDMGWFRQAPGKEREFVAQISRHNSNTYYADAVKGRFTISRDNAKNTVSLQMNSLKPEDTAVYYCAIGSLFPSSRERDYDYWGQGTQVTVSS
notes: as for B1
B10: P23IL81E10 (VHH)
VHH: EVQLVESGGGLVQAGGSLRLSCVASGRTFNTYGMGWFRQAPGKEREFVAANNWSGGATSYADSVKGRFTISRDNAKNTVFLQMNTLKPEDTAVYYCAAADRGGGWLVVRENDYDYWGQGTQVTVSS
notes: p40+ Nanobody
B11: P23IL119A3-35GS-81A12 (bispecific antibody)
chain: EVQLVESGGGLVQAGGSLRLSCAASGRIFSLPASGNIFNLLTIAWHRQAPGMQRELVATINSGSRTNYADSVKGRFTISRDNAQKTVYLQMNNLKPEDTAVYYCQTSGSGSPNFWGQGTQVTVSSGGGGSGGGGSGGGGSGGGGSGGGGSGGGGSGGGGSEVQLVESGGGLVQAGGSLRLSCAASGRTLSSYAMGWFRQAPGKEREFVARISQGGTAIYYADSVKGRFTISRDNAKNTVYLQMNSLKPEDTAVYYCAKDPSPYYRGSAYLLSGSYDSWGQGTQVTVSS
B12: P23IL119A3-9GS-81G2 (bispecific antibody)
chain: EVQLVESGGGLVQAGGSLRLSCAASGRIFSLPASGNIFNLLTIAWHRQAPGMQRELVATINSGSRTNYADSVKGRFTISRDNAQKTVYLQMNNLKPEDTAVYYCQTSGSGSPNFWGQGTQVTVSSGGGGSGGGSEVQLVESGGGLVQPGGSLRLSCIASGLPFSTKSMGWFRQAPGKEREFVARISPGGTSRYYGDFVKGRFAISRDNAKNTTWLQMNSLKAEDTAVYYCASGERSTYIGSNYYRTNEYDYWGTGTQVTVSS
B13: P23IL-121A2-9GS-81G2 (bispecific antibody)
chain: EVQLVESGGGLVQAGGSLRLSCAASGSIFNFNYMGWFRQAPGKEREFVAAIRWSGSSTYYADSVKGRFTISRDDAKNTVALQMNSLKPEDTAIYYCALRKGIPYSTSDRVIKGVNDYDYWGQGTQVTVSSGGGGSGGGSEVQLVESGGGLVQPGGSLRLSCIASGLPFSTKSMGWFRQAPGKEREFVARISPGGTSRYYGDFVKGRFAISRDNAKNTTWLQMNSLKAEDTAVYYCASGERSTYIGSNYYRTNEYDYWGTGTQVTVSS
B14: P23IL 3F11 (VHH)
VHH: EVQLVESGGGLVQAGGSLRLSCAASGSIFSINAMGWFRQAPGKERQFVAAINWSTGSTYYSDSVKGRFTISRDNAKNTVYLQMNSLKPEDTAVYFCASGYLFPSSRGSQYDYWGQGTQVTVSS
notes: as for B1
B15: P23IL 84G12 (VHH)
VHH: EVQLVESGGRLVQAGGSLRLSCAASGRTFDSNPMGWFRQAPGKKREFVAIISGNGGITNYANSVKGRFTISRDNAKNTIYLQMNSLKPEDTAVYYCAASGLYGSGSVYDLMYDYWGQGTQVTVSS
notes: also called P23ILp40-PMP84G12
B16: P23IL 20F2 (VHH)
VHH: EVQLVESGGGLVQPGGSLRLSCAASGFSLDYTAIGWFRQAPGKEREVVSCFTSVPGSTYHADSVKGRFTIASDNAKNTVYLQMNDLKPEDTAVYYCATDAQTYYSGSYCGRTPQEYPYWGQGTQVTVSS
notes: p40- Nanobody
B17: P23IL81A12v4 (VHH)
VHH: EVQLLESGGGLVQPGGSLRLSCAASGRTLSSYAMGWFRQAPGKGREFVSRISQGGTAIYYADSVKGRFTISRDNSKNTLYLQMNSLRPEDTAVYYCAKDPSPYYRGSAYLLSGSYDSWGQGTLVTVSS
notes: Final humanization variant of 81A12

biological target: T1, recombinant human IL-12; test: alpha-screen, hIL-12/IL12Rbeta1-Fc
Method: Human IL-23R-Fc chimera and hIL12Rbeta1-Fc chimera (R&D Systems, Minneapolis, Minn., US) were coupled to acceptor beads according to manufacturer instructions (Perkin Elmer, Waltham, Mass., US).
To this mixture, the IL12Rbeta1 acceptor beads and the streptavidin donor beads were added and further incubated for 1 hour at RT.

Binder	IC50 [nM]
B1	0.35
B2	1
B3	0.9
B4	1.2
B5	1.2
B6	1.9
B7	1.3
B8	0.96
B9	1.63
B10	23

biological target: T2, recombinant human IL-23 (p19/p40); test: cell-based or functional assay

Binder	IC50, splenocyte assay, 19 pM hIL-23 [pM]
B11	7

biological target: cynomolgus IL-23 (cynomolgus); test: cell-based or functional assay

Binder	IC50, splenocyte assay, 3.8 pM cIL-23 [pM]
B11	5

biological target: T2, recombinant human IL-23 (p19/p40); test: cell-based or functional assay; remark: another data set of the same source

Binder	IC50, splenocyte assay, 19 pM hIL-23 [pM]
B12	1990
B13	740

biological target: T2, recombinant human IL-23 (p19/p40); test: SPR Biacore, hIL-23 on chip
Method: (§1) Nanobody binding was assessed at one concentration (100 nM). Each Nanobody was injected for 4 minutes at a flow rate of 45 μl/min to allow binding to chip-bound antigen. Next, binding buffer without Nanobody was sent over the chip at the same flow rate to allow spontaneous dissociation of bound Nanobody.

Binder	koff [s⁻¹]
B1	0.0035
B2	0.000294
B3	0.00197
B4	0.00018
B5	0.0011
B6	0.00017
B7	0.00023
B8	0.0016
B9	0.00051
B10	0.00263
B14	0.00146
B15	0.00029

biological target: T3, cynomolgus IL-23 (cynomolgus); test: SPR Biacore, cyno IL-23 on chip
T3 construct: also called cyno IL-23; cIL-23

Binder	koff
B2	5.9e-05 s⁻¹
B3	0.002 s⁻¹ and 0.004 s⁻¹
B4	0.0012 s⁻¹ and 0.0025 s⁻¹
B5	0.00067 s⁻¹
B6	0.00023 s⁻¹
B7	0.00023 s⁻¹
B10	0.00132 s⁻¹ and 0.0012 s⁻¹
B15	7e-05 s⁻¹

biological target: T2, recombinant human IL-23 (p19/p40); test: SPR Biacore, hIL-23 on chip; remark: another data set of the same source
Method: as §1

Binder	koff [s⁻¹]
B16	0.00054

biological target: T2, recombinant human IL-23 (p19/p40); test: cell-based or functional assay; remark: another data set of the same source

Binder	IC50, mouse splenocyte assay (mIL-22) [nM]	IC50, mouse splenocyte assay (mIL-22); nc = blocking not complete [nM]
B1	0.408	
B2		0.51
B3	2.33	
B4	0.935	
B5	0.79	
B6	0.116	
B7	0.186	

biological target: T3, cynomolgus IL-23; test: cell-based or functional assay

Binder	IC50, mouse splenocyte assay (mIL-22) [nM]	IC50, mouse splenocyte assay (mIL-22); nc = blocking not complete [nM]
B1	1.79	
B2		0.517
B3	9.45	
B4	5.46	
B5	32.5	
B6	0.705	
B7	1.27	

biological target: T1, recombinant human IL-12; test: cell-based or functional assay

Binder	IC50, PHA blast proliferation, 1 pM hIL-12; nc = no complete blocking [pM]	IC50, PHA blast proliferation, 1 pM hIL-12 [pM]
B1	1500	
B3		194
B4	1730	
B5		174
B6		116
B7		159

biological target: T2, recombinant human IL-23 (p19/p40); test: SPR Biacore, hIL-23

Binder	Kd [nM]	koff [s⁻¹]	kon [M⁻¹ s⁻¹]
B17	0.33	0.0002	600000
